Laboratory results published in publication PMC3904411.

Key:
[1] = target: PcrG (Pseudomonas aeruginosa strain 2192); assay: SEC; HiLoad 16/60 Superdex 200 pg; 25 mM Tris–HCl pH 7.4, 150 mM NaCl; proteins 2–5 mg/ml; 1 ml/min; calibrated with markers
[2] = target: ∆PcrG_((13–72)) (Pseudomonas aeruginosa strain 2192); assay: SPR; BIACORE 3000, NTA sensor chip; […]; 10 mM hepes pH 7.4, 150 mM NaCl, 50 μM EDTA; 25°C; 5 μl/min; Langmuir binding model
[3] = target: PcrG (Pseudomonas aeruginosa strain 2192); assay: as above
[4] = target: PcrG (Pseudomonas aeruginosa strain 2192); assay: cross-linking; EGS-sulfonate 0.5 mM, 1 mM and 2 mM, room temperature, 30 minutes; 10 mM hepes pH 7.4, 150 mM NaCl; 12% SDS PAGE
[5] = target: PcrG (Pseudomonas aeruginosa strain 2192); assay: dynamic light scattering; Malvern Zetasizer nano ZS; proteins 2–5 mg/ml, filtered 0.22 micron; ΔPcrV(128–294) alone and with equimolar PcrG
[6] = target: ∆PcrG_((13–72)) (Pseudomonas aeruginosa strain 2192); assay: native MS; called native mass spectrometry; protein diluted to 0.5-1.0 mg/ml in HPLC water, spotted on a MALDI target plate with CHCA matrix; Applied Biosystem 4700 Proteomics Analyser

**Q.** PcrG (natural protein) was tested. Which stoichiometry N [1] did it give?
**A.** The stoichiometry N was 2.

**Q.** Which Ka [2] does the source give for “PcrV (from UniProt G3XD49 1-294) (natural protein)” here?
**A.** Its Ka is 1.75e+06 M⁻¹.

**Q.** What about the Kd [2] of the same substance?
**A.** Its Kd is 570 nM.

**Q.** And the koff [2]?
**A.** The koff was 0.00978 s⁻¹.

**Q.** And the kon [2]?
**A.** The kon was 17100 M⁻¹ s⁻¹.

**Q.** How did the Kd [3] turn out when “ΔPcrV_((1–158)) (from UniProt G3XD49 1-158) (domain or fragment)” was run?
**A.** The Kd was 203 nM.

**Q.** “ΔPcrV_((1–250)) (from UniProt G3XD49 1-250) (domain or fragment)” was tested. Which Kd [3] did it give?
**A.** Its Kd is 179 nM.

**Q.** For “ΔPcrV_((128–250)) (from UniProt G3XD49 128-250) (domain or fragment)”, which Kd [3] is on record?
**A.** Its Kd is 247 nM.

**Q.** How did the Ka [3] turn out when “ΔPcrV_((128–294)) (from UniProt G3XD49 128-294) (domain or fragment)” was run?
**A.** Its Ka is 4.11e+07 M⁻¹.

**Q.** What about the Kd [3] of the same substance?
**A.** The Kd was 24.3 nM.

**Q.** And the koff [3]?
**A.** The koff was 1.24e-05 s⁻¹.

**Q.** And the kon [3]?
**A.** The kon was 511 M⁻¹ s⁻¹.

**Q.** And the Ka [2]?
**A.** Its Ka is 1.61e+06 M⁻¹.

**Q.** What about the Kd [2] of the same substance?
**A.** Its Kd is 621 nM.

**Q.** What about the koff [2] of the same substance?
**A.** Its koff is 1.69e-05 s⁻¹.

**Q.** And the kon [2]?
**A.** Its kon is 27.2 M⁻¹ s⁻¹.

**Q.** What about the stoichiometry N [4] of the same substance?
**A.** The stoichiometry N was 1.

**Q.** What about the stoichiometry N [5] of the same substance?
**A.** Its stoichiometry N is 1.

**Q.** Which Kd [3] does the source give for “ΔPcrV_((159–294)) (from UniProt G3XD49 159-294) (domain or fragment)” here?
**A.** Its Kd is 36.6 nM.

**Q.** With ∆PcrG_((13–72)) (domain or fragment) as the substance, how does the stoichiometry N [6] read?
**A.** The stoichiometry N was 2.
